Source: paper PMC1807944
“And” between values parts separate entries of the source, which are not always exact repeats. Equal entries are not always repeated.

What was measured:
HIV-1 integrase (HIV-1) = assay: SAXS
[1] = target: HIV-1 integrase (IN), monomer E (HIV-1) (UniProt P04585); assay: SAXS titration

Substance | stoichiometry N (HIV-1 integrase (HIV-1)) | Kd [1]
HIV-1 integrase (enzyme) | 2 and 4 | –
AAAAAAAAAAAAAAAAAAAAA (double strand) [ds A21-T21] | – | 40 nM
